Laboratory results: patent US20070036799A1 (MacroGenics, published 2007)
Changes are numbered by the printed parent chain. Names may count otherwise. Read-outs that look alike come from different tables or passages of the source. One block for each binder: values may come before it.

Tests used:
[1] = target: T1, FcγRIIB-Fc fusion protein (soluble dimeric FcγRIIB) (human, UniProt P31994 43-217); experiment: ELISA
T1 construct: extracellular domain; the suffix agl in 2bfcagl is not explained; also called FcRIIB-Fc; FcγRIIB-G2; not shown: hinge-CH2-CH3 domain of human IgG2
T1 sequence (looked up): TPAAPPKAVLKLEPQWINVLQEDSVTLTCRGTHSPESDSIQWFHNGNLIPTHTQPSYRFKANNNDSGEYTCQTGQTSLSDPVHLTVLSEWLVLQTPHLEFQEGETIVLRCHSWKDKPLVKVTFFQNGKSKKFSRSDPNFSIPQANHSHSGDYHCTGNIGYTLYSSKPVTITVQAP

[2] = target: T2, soluble monomeric FcγRIIIA-linker-AVITAG (158V), biotinylated (human, UniProt P08637 17-203, biotin on the AVITAG lysine (BirA)); experiment: SPR
T2 construct: range 1-203; used as monomer in ELISA and BIAcore; also called FcR3A; FcRIIIa; not shown: linker-AVITAG (15 aa AVITAG) at the C-terminus; only the coding oligonucleotide is given
T2 sequence (P08637 17-203 F176V limits assumed, form in doubt): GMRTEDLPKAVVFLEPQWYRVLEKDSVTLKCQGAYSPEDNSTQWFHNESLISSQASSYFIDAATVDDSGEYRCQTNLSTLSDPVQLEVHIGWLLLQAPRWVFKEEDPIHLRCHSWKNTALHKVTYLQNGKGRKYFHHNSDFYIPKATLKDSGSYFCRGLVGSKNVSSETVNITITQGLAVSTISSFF

[3] = target: T1, FcγRIIB-Fc fusion protein (soluble …); experiment: SPR
[4] = target: T2, soluble monomeric …; experiment: ELISA
[5] = target: T2, soluble monomeric …; experiment: ELISA; remark: listed apart in the source
[6] = target: T1, FcγRIIB-Fc fusion protein (soluble …); experiment: ELISA; remark: listed apart in the source
[7] = target: T2, soluble monomeric …; experiment: SPR; remark: listed apart in the source
[8] = target: T1, FcγRIIB-Fc fusion protein (soluble …); experiment: SPR; remark: listed apart in the source
[9] = target: T2, soluble monomeric …; experiment: ELISA; remark: listed apart in the source
[10] = target: T1, FcγRIIB-Fc fusion protein (soluble …); experiment: ELISA; remark: listed apart in the source

B1: ch4-4-20 T215P, K274N, A287G, K334N, L365V, P396L (antibody)
chain: PEPKSCDKTHTCPPCPAPELLGGPSVFLFPPKPKDTLMISRTPEVTCVVVDVSHEDPEVNFNWYVDGVEVHNGKTKPREEQYNSTYRVVSVLTVLHQDWLNGKEYKCKVSNKALPAPIENTISKAKGQPREPQVYTLPPSRDELTKNQVSVTCLVKGFYPSDIAVEWESNGQPENNYKTTPLVLDSDGSFFLYSKLTVDKSRWQQGNVFSCSVMHEALHNHYTQKSLSLSPGK
- fold vs wt [1]: 4 x increase

B2: ch4-4-20 G316D, A378V, D399E (antibody)
chain: ASTKGPSVFPLAPSSKSTSGGTAALGCLVKDYFPEPVTVSWNSGALTSGVHTFPAVLQSSGLYSLSSVVTVPSSSLGTQTYICNVNHKPSNTKVDKKVEPKSCDKTHTCPPCPAPELLGGPSVFLFPPKPKDTLMISRTPEVTCVVVDVSHEDPEVKFNWYVDGVEVHNAKTKPREEQYNSTYRVVSVLTVLHQDWLNDKEYKCKVSNKALPAPIEKTISKAKGQPREPQVYTLPPSRDELTKNQVSLTCLVKGFYPSDIVVEWESNGQPENNYKTTPPVLESDGSFFLYSKLTVDKSRWQQGNVFSCSVMHEALHNHYTQKSLSLSPGK
- Kd [2]: 72 nM
- koff [2]: 0.117 s⁻¹
- Kd [3]: 46 nM
- koff [3]: 0.06 s⁻¹
- fold vs wt [4]: 1.5 x increase
- fold vs wt [1]: 14 x increase
- fold vs wt [5]: 1.5 X
- fold vs wt [6]: 14 X

B3: ch4D5 MGFc0088A (F243L, R292P, Y300L, P396L) (antibody)
chain: B2 chain with F126L, R175P, Y183L, D199G, V261A, P279L, E282D
- Koff WT/Koff MUT [7]: 10.1 ratio

B4: ch4-4-20 V348M, K334N, F275I, Y202M, K147T (antibody)
chain: B2 chain with K30T, V85M, F158I, D199G, K217N, V231M, V261A, E282D
- fold vs wt [4]: 0.5 x increase

B8: ch4-4-20 K288N, A330S, P396L (antibody)
chain: EPKSCDKTHTCPPCPAPELLGGPSVFLFPPKPKDTLMISRTPEVTCVVVDVSHEDPEVKFNWYVDGVEVHNANTKPREEQYNSTYRVVSVLTVLHQDWLNGKEYKCKVSNKALPSPIEKTISKAKGQPREPQVYTLPPSREEMTKNQVSLTCLVKGFYPSDIAVEWESNGQPENNYKTTPLVLDSDGSFFLYSKLTVDKSRWQQGNVFSCSVMHEALHNHYTQKSLSLSPGK
- Kd [3]: 33.4 nM
- Kd [8]: 41.3 nM
- ELISA, OD [9]: 1 OD
- ELISA, OD [10]: 1.2 OD

B11: ch4-4-20 K317N, F423-deleted (antibody)
chain: EPKSCDKTHTCPPCPAPELLGGPSVFLFPPKPKDTLMISRTPEVTCVVVDVSHEDPEVKFNWYVDGVEVHNAKTKPREEQYNSTYRVVSVLTVLHQDWLNGNEYKCKVSNKALPAPIEKTISKAKGQPREPQVYTLPPSREEMTKNQVSLTCLVKGFYPSDIAVEWESNGQPENNYKTTPPVLDSDGSFFLYSKLTVDKSRWQQGNVSCSVMHEALHNHYTQKSLSLSPGK
- fold vs wt [1]: 7 x increase

The remaining lines, values ahead:

- Kd [3]: 93.4 nM
- koff [3]: 0.101 s⁻¹
B5: ch4-4-20 F243I, V379L, G420V (antibody)
chain: B2 chain with F126I, D199G, V261A, V262L, E282D, G303V

- Koff WT/Koff MUT [7]: 2.56 ratio
B6: ch4D5 MGFc0074 (F243L, R292P, V305I) (antibody)
chain: B2 chain with F126L, R175P, V188I, D199G, V261A, E282D

- Kd [2]: 55.2 nM
- koff [2]: 0.128 s⁻¹
- Kd [3]: 72 nM
- koff [3]: 0.11 s⁻¹
- fold vs wt [4]: 1.5 x increase
- fold vs wt [5]: 1.5 X
B7: ch4-4-20 K334E, T359N, T366S (antibody)
chain: B2 chain with D199G, K217E, T242N, T249S, V261A, E282D

- Kd [3]: 86 nM
B9: ch4-4-20 E293V, Q295E, A327T (antibody)
chain: B8 chain with N73K, E78V, Q80E, A112T, S115A, L181P

- Kd [2]: 125 nM
- Kd [3]: 55.7 nM
- fold vs wt [5]: 3.5 X
B10: ch4-4-20 Y319F, P352L, P396L (antibody)
chain: B8 chain with N73K, Y104F, S115A, P137L
